Assay results reported in patent JP2023053786A (dated 2023).

T1: HBs抗原(Prosec Tany Technology Ltd. HBS 875), biotinylated (Hepatitis B virus (adr型), UniProt P03140 175-400, biotinylated with EZ-Link NHS-PEG4-biotin (sites not given))
T1 construct: also called ビオチン化HBs抗原; adr型HBs抗原(PROSPEC社製)
T1 chain: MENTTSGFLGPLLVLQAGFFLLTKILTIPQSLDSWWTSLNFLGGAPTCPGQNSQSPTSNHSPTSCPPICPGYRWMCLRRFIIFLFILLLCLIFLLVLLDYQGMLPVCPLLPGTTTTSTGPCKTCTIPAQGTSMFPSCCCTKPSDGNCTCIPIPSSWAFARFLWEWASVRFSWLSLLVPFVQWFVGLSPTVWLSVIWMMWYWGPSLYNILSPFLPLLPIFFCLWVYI

B1: ヒト化HB351 (antibody, V domains shown)
VH: EVQLVQSGAEVKKPGATVKISCKVSGFNIKDTYMYWVQQAPGKGLEWIGRIDPANGDTKYDPNFQGRVTITADTSTDTAYMELSSLRSEDTAVYYCARDDYDGAMDYWGQGTLVTVSS
VL: EIVLTQSPATLSLSPGERATLSCSASSTVNYMYWYQQKPGQAPRLLNFDTSNLASGIPARFSGSGSGTDFTLTISSLEPEDFAVYYCQRWSTYPPITFGQGTKLEIK
notes: also called humanized HB351; ヒト化したモノクローナル抗体HB351
B2: クローンHB1170 (mouse monoclonal HBs antigen-binding antibody) (antibody, V domains shown)
VH: QIQLVQSGPELKKPGETVKISCKASGYTFTDFSMHWVKQAPGKGLKWMGWIDTETGEPTNADDFKGRFVFSLETSASAAYLQIHNLKNDDTATYFCARKDYELGTWFVYWGQGTLVTVST
VL: DIQMTQTTSSLSASLGDRVTISCRASQDISNFLNWYQQKPDGTVKLLIYYTSRLHSGVPSRFSGSGSGTDYSLTISNLEQEDFATYFCQQGKTLPRTFGGGTILEIK
notes: Mouse hybridoma antibody; also called HB1170; HB1170クローン
B3: クローンHB351 (mouse monoclonal HBs antigen-binding antibody) (antibody, V domains shown)
VH: EIQLQQSGAELVKPGASVKLSCTASGFNIKDTYMYWVKQRPEQGLEWIGRIDPANGDTKYDPNFQGKATITADPSSNTAYLQLTSLTSEDTAVYYCARDDYDGAMDYWGRGTSVTVSS
VL: QIVLTQSPAIMSASPGERVTMTCSASSTVNYMYWYQQKPGSSPRLLNFDTSNLASGVPVRFSGSGSGTSYSLTISRMEAEDAATYYCQRWSTYPPITFGSGTKLEIK
notes: Mouse hybridoma antibody; The 91/92 assignment follows the order HB351, HB1170, HB1215 = (1), (2), (3); also called HB351; クローン351
B4: クローンHB1215 (mouse monoclonal HBs antigen-binding antibody) (antibody, V domains shown)
VH: QVQLKQSGPGLVQPSQSLSLTCTVSGFSLATYGVQWVRQSPGKGLEWLGVIWRGGNTDYNAAFMSRLSITKDNSKSQVFFKMNSLQGDDTAIYYCAKATYFDVWGAGTTVTVSS
VL: QAVVTQESALTTSPGETVTLTCRSSTGAVTTSNFANWVQEKPDHLFTGLIGDTNNRAPGVPARFSGSLIGDKAALTITGAQTEDEAIYFCALWYNNWVFGGGTKLTVL
notes: Mouse hybridoma antibody; also called HB1215; HB1215クローン
B5: ヒト化HB1170 (antibody, V domains shown)
VH: QVQLVQSGSELKKPGASVKVSCKASGYTFTDFSMHWVRQAPGQGLKWMGWIDTETGEPTNADDFKGRFVFSLDTSVSTAYLQISSLKAEDTAVYYCARKDYELGTWFVYWGQGTTVTVSS
VL: DIQMTQSPSSLSASVGDRVTITCRASQDISNFLNWYQQKPGKAPKLLIYYTSRLHSGVPSRFSGSGSGTDYTLTISSLQPEDFATYYCQQGKTLPRTFGGGTKVEIK
notes: also called humanized HB1170; ヒト化したモノクローナル抗体HB1170

Columns and labels:
[1] = target: T1, HBs抗原(Prosec Tany Technology Ltd. HBS …; test: BLI (Octet), as in Example 3: biotinylated HBs antigen on streptavidin sensor
[2] = target: T1, HBs抗原(Prosec Tany Technology Ltd. HBS …; test: BLI (Octet RED96e), biotinylated HBs antigen on streptavidin sensor, antibody in solution

Binder	Kd [1] [nM]	Kd [2] [nM]
B1	~0.3	
B2		~3
B3		~0.3
B4		~0.3
B5	~3	
